The record followed here is PMC11555231, “A cyclic peptide toolkit reveals mechanistic principles of peptidylarginine deiminase IV regulation” (Nature Communications, 2024).

Test [1] has as its target human PADI4 stably expressed in E14 mouse embryonic stem cells (hPADI4-stable) (human, UniProt Q9UM07 1-663). Put plainly: cell-based or functional assay.
Test [2] has as its target T1, PADI4_C166F (human, UniProt Q9UM07 1-663, C166F).
T1 construct: source: E. coli BL21-DE3, purified (Ni-NTA, S200 SEC), as told for the wild type
In words: SPR; single cycle kinetics; biotinylated PADI4 (wild type or single-residue variant) captured on a Biotin CAPture chip, peptide or peptide analogue as analyte; 50 mM HEPES pH 7.5, 150 mM NaCl, 2 mM DTT, 0.05% Tween-20, 0.1% DMSO; 25 °C; CaCl2 concentration not told for these runs. Conditions: both partners purified.

For test [3], the target named is T2, PADI4_D168A (human, UniProt Q9UM07 1-663, D168A).
T2 construct: human PADI4, residues 1-663, single substitution; source: E. coli BL21-DE3, purified (Ni-NTA, S200 SEC), as told for the wild type
T2 sequence (Q9UM07 whole entry D168A, the tested form may be a part): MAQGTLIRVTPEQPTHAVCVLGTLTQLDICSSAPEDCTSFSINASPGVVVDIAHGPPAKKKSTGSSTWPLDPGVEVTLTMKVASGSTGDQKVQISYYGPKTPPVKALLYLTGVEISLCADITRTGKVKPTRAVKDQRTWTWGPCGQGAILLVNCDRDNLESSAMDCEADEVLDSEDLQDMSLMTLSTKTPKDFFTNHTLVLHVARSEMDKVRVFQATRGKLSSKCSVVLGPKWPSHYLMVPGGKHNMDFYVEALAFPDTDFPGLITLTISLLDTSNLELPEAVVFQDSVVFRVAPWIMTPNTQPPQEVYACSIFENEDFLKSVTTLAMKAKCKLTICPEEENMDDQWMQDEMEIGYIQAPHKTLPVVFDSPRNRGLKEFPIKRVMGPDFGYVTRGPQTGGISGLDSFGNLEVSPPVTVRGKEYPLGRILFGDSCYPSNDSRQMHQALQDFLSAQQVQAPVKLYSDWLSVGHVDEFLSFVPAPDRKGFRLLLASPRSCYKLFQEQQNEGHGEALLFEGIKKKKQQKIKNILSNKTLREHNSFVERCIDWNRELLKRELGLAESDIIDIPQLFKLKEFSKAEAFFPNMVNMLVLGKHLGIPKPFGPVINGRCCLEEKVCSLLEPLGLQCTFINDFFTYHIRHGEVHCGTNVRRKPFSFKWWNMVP
The description is as above. Conditions: both partners purified.

In a further test the target is T3, PADI4_N373A (human, UniProt Q9UM07 1-663, N373A).
T3 construct: human PADI4, residues 1-663, single substitution; source: E. coli BL21-DE3, purified (Ni-NTA, S200 SEC), as told for the wild type
T3 sequence (Q9UM07 whole entry N373A, the tested form may be a part): as the sequence (Q9UM07 whole entry D168A, the tested form may be a part) above, with A168D, N373A counted along it
The description is as above. The settings on record: both partners purified.

Test [4] concerns the target T4, PADI4_R394A (human, UniProt Q9UM07 1-663, R394A).
T4 construct: human PADI4, residues 1-663, single substitution; source: E. coli BL21-DE3, purified (Ni-NTA, S200 SEC), as told for the wild type
Described as above. Conditions: both partners purified.

Test [5] has as its target T5, PADI4_E167A (human, UniProt Q9UM07 1-663, E167A).
T5 construct: human PADI4, residues 1-663, single substitution; source: E. coli BL21-DE3, purified (Ni-NTA, S200 SEC), as told for the wild type
Described as above. The settings on record: both partners purified.

The target in test [6] is T6, PADI4_D165A (human, UniProt Q9UM07 1-663, D165A).
T6 construct: human PADI4, residues 1-663, single substitution made by mutagenesis of the plasmid; source: E. coli BL21-DE3, purified (Ni-NTA, S200 SEC), as told for the wild type
T6 sequence (Q9UM07 whole entry D165A, the tested form may be a part): as the sequence (Q9UM07 whole entry D168A, the tested form may be a part) above, with D165A, A168D counted along it
The test is described as above. The settings on record: both partners purified.

In test [7] the target is T1, PADI4_C166F. Put plainly: cell-based or functional assay.
Test [8] concerns the target T2, PADI4_D168A. In words: cell-based or functional assay.
Test [9] addresses T4, PADI4_R394A. In words: cell-based or functional assay.
Test [10] concerns the target T5, PADI4_E167A. Put plainly: cell-based or functional assay.
Test [11] concerns the target T6, PADI4_D165A. In words: cell-based or functional assay.
The target of test [12] is His-tagged recombinant human PADI4 (His-PADI4) (human, UniProt Q9UM07 1-663). Put plainly: cell-based or functional assay.
Chain of His-tagged recombinant human PADI4 (His-PADI4) (Q9UM07 whole entry): as the sequence (Q9UM07 whole entry D168A, the tested form may be a part) above, with A168D counted along it
Test [13] has as its target T7, N-terminally biotinylated recombinant human PADI4 (bio-His-PADI4) (human, UniProt Q9UM07 1-663, biotin on the N-terminal Avi-Tag (BirA)).
T7 construct: human peptidylarginine deiminase IV (PADI4), residues 1-663; (vector p28BIOH-LIC, Addgene plasmid 62352); also called Bio-hPADI4 wt; PADI4_WT; source: E. coli BL21-DE3 co-expressing biotin ligase (BirA), purified (Ni-NTA, S200 SEC); not shown: Avi-Tag (biotinylated), N-terminal, kept; His6, N-terminal, kept
Put plainly: SPR; single cycle kinetics; biotinylated PADI4 (wild type or single-residue variant) captured on a Biotin CAPture chip, peptide or peptide analogue as analyte; 50 mM HEPES pH 7.5, 150 mM NaCl, 2 mM DTT, 0.05% Tween-20, 0.1% DMSO; 25 °C; CaCl2 concentration not told for these runs. Conditions: both partners purified.

Bridge positions count the residues as written; N and C are the ends. Square brackets hold non-standard residues; d marks the D form.

T4 sequence (Q9UM07 whole entry R394A, the tested form may be a part): as the sequence (Q9UM07 whole entry D168A, the tested form may be a part) above, with A168D, R394A counted along it
T5 sequence (Q9UM07 whole entry E167A, the tested form may be a part): as the sequence (Q9UM07 whole entry D168A, the tested form may be a part) above, with E167A, A168D counted along it
T1 sequence (Q9UM07 whole entry C166F): as the sequence (Q9UM07 whole entry D168A, the tested form may be a part) above, with C166F, A168D counted along it
T7 sequence (Q9UM07 whole entry, the tested form may be a part): as the sequence (Q9UM07 whole entry D168A, the tested form may be a part) above, with A168D counted along it
Chain of human PADI4 stably expressed in E14 mouse embryonic stem cells (hPADI4-stable) (Q9UM07 whole entry): as the sequence (Q9UM07 whole entry D168A, the tested form may be a part) above, with A168D counted along it

B1: PADI4_3 (peptide)
peptide: {CH2CO}-[dY]RDHHYRHPKYCG-NH2
modifications: thioether N-12
notes: cyclic peptide from RaPID selection 1 (10 mM CaCl2); source: synthetic peptide (Fmoc solid-phase synthesis, HPLC purified)
In the case of B1, the “EC50 of inhibition of H3 citrullination in hPADI4-stable mES cells stimulated with KSR/2i for 3 h (high-content imaging)” value in test [1] amounted to 200 nM. The Kd in the test with PADI4_C166F [2] was 3 nM; with PADI4_D168A [3], 20 nM; with PADI4_N373A it was 83 nM; in the test with PADI4_R394A [4] it was 8 nM; in the test with PADI4_E167A [5], 7 nM; in the test with PADI4_D165A [6], 61 nM.

B2: PADI4_11 (peptide)
peptide: {CH2CO}-YESCRYRQVLQL-NH2
modifications: thioether N-4
notes: cyclic (lariat) peptide from RaPID selection 3 (10 mM CaCl2 + Cl-amidine); also called PAD4_11; source: synthetic peptide (Fmoc solid-phase synthesis, HPLC purified)
On to B2, for which the “ratio of K50(Ca2+) with DMSO to K50(Ca2+) with 30 µM PADI4_11 (COLDER assay)” value with PADI4_C166F [7] stood at 0.9 fold; in the test with PADI4_D168A [8], 2.9 fold; with PADI4_R394A [9], 1.1 fold; in the test with PADI4_E167A [10] it was 2.7 fold; with PADI4_D165A [11], 1.5 fold. Moreover, the Kd with PADI4_C166F [2] was greater than 10000 nM; with PADI4_D168A [3], 4000 nM; with PADI4_N373A, greater than 10000 nM; with PADI4_R394A [4], greater than 10000 nM; with PADI4_E167A [5], 700 nM; with PADI4_D165A [6], 3000 nM.

B3: PADI4_3_R2Cit (peptide)
chain: YRDHHYRHPKYCG
modifications: citrulline at position 2; else as PADI4_3: D-tyrosine at position 1; thioether cyclisation between the N-terminus and the cysteine side chain; C-terminal amide
In the case of B3, the “IC50 of inhibition of PADI4 activity (COLDER assay)” value in test [12] turned out to be 1100 nM. Also, the Kd in test [13] is 20 nM.
